In US20220151977A1, “Generation Of Water-Soluble Cannabinoids Utilizing Protein Cannabinoid-Carriers” (Trait Biosciences, Inc., priority 2019, published 2022):

B1: 10 (protein)
chain: MHVSTRQPCGAAPTAWPAQRPRSSPRRLACSAVLRDDARGVLQQAGLKLAAAAAAVLLAAPLHAGAASMPANAPLPALPPAPFDIEQSKQSKLLFDPMAYSGRWYEVASLKRGFAGEGQQDCHCTQGIYTPKEGGPEGAIKLEVDTFCVHGGPGGRLSGIQGSVSCADPLLLSYLPEFQTEMEMVEGFVAKCALRFDSLAFLPPEPYVVLRTDYTSYALVRGAKDRSFVQIYSRTPNPGAKFIAEQKAVLGQLGYPANDIVDTPQDCPEMAPQAMMAAMNRGMSSTPTMPASTPPALAMAGYDLGPAAVVLGEEAPAPVKGIAFDRLRNPLESLKNVFSLFN
modifications: Micractinium conductrix
B2: 30 (protein)
chain: MAYSGRWYEVASLKRGFAGEGQQDCHCTQGIYTPKEGGPEGAIKLEVDTFCVHGGPGGRLSGIQGSVSCADPLLLSYLPEFQTEMEMVEGFVAKCALRFDSLAFLPPEPYVVLRTDYTSYALVRGAKDRSFVQIYSRTPNPGAKFIAEQKAVLGQLGYPANDIVDTPQDCPEMAPQ
modifications: Micractinium conductrix
B3: SEQ ID NO. 30: PSC68250.1 lipocalin-like domain (partial), Micractinium conductrix (protein)
chain: B2 chain
modifications: Micractinium conductrix
notes: PSC68250.1 lipocalin-like domain (partial), Micractinium conductrix
B4: 1 (protein)
chain: MTSTEKKDMKAVKGLDLERYMGRWYEIASFPSRFQPKDGVDTRATYTLNPDGTVHVLNETWNGGKRGFIQGSAYKADPKSDEAKLKVKFFVPPFLPVIPVTGDYWVLYIDPEYQHAVIGQPSRSYLWILSRTAHMEEETYKQLVEKAVEEGYDVSKLHKTPQSDTPPESNTAPDDTKGVWWLKSIFGK
modifications: Cluster63 Unique
B5: 33 (protein, listed as Macleaya cordata)
chain: MIRYSGRWFEVASLKRGFAGSGQEDCHCTQGVYTFDSEAPAIQVDTFCVHGGPDGYITGIRGKVQCLSEEDLEKNETDLEKRVMIREKCYLRFPTLPFIPKEPYDVIATDYDNFALVSGAKDTSFIQIYSRTPNPGPEFIEKYKSYLGNYGYDPSMIKDTPQ
B6: SEQ ID NO. 121: odorant-binding protein 1a-like, Mus caroli (Ryukyu mouse) (protein, listed as Mus caroli)
chain: MVKFLLLELAFGLAHAQMYGPWKTIAIAADNVDKMEISGELRLYFHQITCEKECKKMNVTFYVDENGQCSLTTITGYLQDDGKTYRSQFQGDNHYATVRTTPENIVFYSENVDRAGRKTKLVYVVGKNGSGSLK
B7: SEQ ID NO. 10: PSC68250.1 lipocalin-like domain, Micractinium conductrix (green algae) (protein)
chain: B1 chain
modifications: Micractinium conductrix
B8: SEQ ID NO. 1: Cluster63 Unique, artificial consensus sequence based on a family of homologous plant lipocalin sequences (protein)
chain: B4 chain
modifications: Cluster63 Unique
B9: SEQ ID NO. 33: OVA10565.1 Lipocalin/cytosolic fatty-acid binding domain (partial), Macleaya cordata (protein, listed as Macleaya cordata)
chain: B5 chain
B10: SEQ ID NO. 148: Odorant-binding protein, partial, Heterocephalus glaber (naked mole-rat) (protein)
chain: MINGDWCSIYIAADNVEKIEERGELRAYFCHIECQDECRNLSGGDRIMRNKHCCVGLSFRLDGVCQEFTVVGVKDEKSGVYITDYVGKNYFTVVESTEYITLFSNIIVDEKGTKMNVVLVAAKRDSLTEKEKQKFAQLAEEKGIPTENIRNVIAT
modifications: Heterocephalus glaber

experiment: Ligand binding assay by ANS displacement, THC; settings: FIG. 8; 2 μM protein, 20 μM ANS, 33 μM ligand, 20° C.

Row | Molecule | binding to THC by ANS displacement (relative change in fluorescence)
1 | B1 | bind to both THC and CBD
2 | B2 | bind to both THC and CBD
3 | B3 | binds to THC better than full length
4 | B4 | bind to both THC and CBD
5 | B5 | bind to both THC and CBD

same assay, conditions: FIG. 8; 2 μM protein, 20 μM ANS, 33 μM ligand, 20° C.; listed as OBP2

Row | Molecule | binding to THC by ANS displacement (relative change in fluorescence)
6 | B6 | highest binding affinity

same assay, conditions: Table 3; 2 μM protein, 20 μM ANS, 33 μM ligand, 20° C.

Row | Molecule | Purification Status (binding to THC)
7 | B7 | Binds to CBD
8 | B3 | Binds to CBD
9 | B6 | Binds to THC
10 | B8 | Binds to CBD
11 | B9 | Binds to CBD
12 | B10 | Binds to THC

experiment: Ligand binding assay by ANS displacement, CBD; settings: FIG. 8; 2 μM protein, 20 μM ANS, 33 μM ligand, 20° C.

Row | Molecule | binding to CBD by ANS displacement (relative change in fluorescence)
13 | B1 | bind to both THC and CBD
14 | B2 | bind to both THC and CBD
15 | B4 | bind to both THC and CBD
16 | B5 | bind to both THC and CBD

same assay, conditions: FIG. 8; 2 μM protein, 20 μM ANS, 33 μM ligand, 20° C.; listed as OBP2

Row | Molecule | binding to CBD by ANS displacement (relative change in fluorescence)
17 | B6 | highest binding affinity

same assay, conditions: Table 3; 2 μM protein, 20 μM ANS, 33 μM ligand, 20° C.

Row | Molecule | Purification Status (binding to CBD)
18 | B7 | Binds to CBD
19 | B3 | Binds to CBD
20 | B6 | Binds to THC
21 | B8 | Binds to CBD
22 | B9 | Binds to CBD
23 | B10 | Binds to THC
